Assay results reported in article PMC8930771, “Structural basis of phosphatidylinositol 3-kinase C2α function” (Nature Structural & Molecular Biology, 2022).

B1: PI3KC2α^ΔN+ΔPX−C2 WT (mouse PI3KC2α amino acids 377–1,400) [mouse] / GST-distal C2 (PI3KC2α amino acids 1,561–1,686) [mouse] (parent complex)
chain 1: VQNDEVAAFCQSIMKLKTKFPYTDHCTNPGYLLSPVTVQRNMCGENASVKVSIEIEGLQLPVTFTCDVSSTVEIIIMQALCWVHDDLNQVDVGSYILKVCGQEEVLQNNHCLGSHEHIQNCRKWDTEIKLQLLTLSAMCQNLARTAEDDEAPVDLNKYLYQIEKPYKEVMTRHPVEELLDSYHYQVELALQTENQHRAVDQVIKAVRKICSALDGVETPSVTEAVKKLKRAVNLPRNKSADVTSLSGSDTRKNSTKGSLNPENPVQVSMDHLTTAIYDLLRLHANSSRCSTACPRGSRNIKEAWTATEQLQFTVYAAHGISSNWVSNYEKYYLICSLSHNGKDLFKPIQSKKVGTYKNFFYLIKWDELIIFPIQISQLPLESVLHLTLFGVLNQSSGSSPDSNKQRKGPEALGKVSLTLFDFKRFLTCGTKLLYLWTSSHTNSIPGAIPKKSYVMERIVLQVDFPSPAFDIIYTSPQIDRNIIQQDKLETLESDIKGKLLDIIHRDSSFGLSKEDKVFLWENRYYCLKHPNCLPKILASAPNWKWANLAKTYSLLHQWPPLCPLAALELLDAKFADQEVRSLAVSWMEAISDDELADLLPQFVQALKYEIYLNSSLVRFLLSRALGNIQIAHSLYWLLKDALHDTHFGSRYEHVLGALLSVGGKGLREELSKQMKLVQLLGGVAEKVRQASGSTRQVVLQKSMERVQSFFLRNKCRLPLKPSLVAKELNIKSCSFFSSNAMPLKVTMVNADPLGEEINVMFKVGEDLRQDMLALQMIKIMDKIWLKEGLDLRMVIFRCLSTGRDRGMVELVPASDTLRKIQVEYGVTGSFKDKPLAEWLRKYNPSEEEYEKASENFIYSCAGCCVATYVLGICDRHNDNIMLRSTGHMFHIDFGKFLGHAQMFGSFKRDRAPFVLTSDMAYVINGGEKPTIRFQLFVDLCCQAYNLIRKQTNLFLNLLSLMIPSGLPELTSIQDLKYVRDALQPQTTDAEATIFFTRLIESSLGSIATKFNFFIHNLAQLRFSG
chain 2: GAVKLSVSYRNGTLFIMVMHIKDLVTEDGADPNPYVKTYLLPDTHKTSKRKTKISRKTRNPTFNEMLVYSGYSKETLRQRELQLSVLSAESLRENFFLGGITLPLKDFNLSKETVKWYQLTAATYL

Variants of: B1
Assay: GST pull-down, SDS-PAGE with Coomassie Blue staining, quantified with ImageJ; n = 3; binding of WT set to 100%; parent: 100; read off a plot

Variant	percent of parent [%]
chain 1 K50A, chain 1 W82A, chain 1 D85A, chain 1 D86A	~42
